According to patent WO2012092539A2 (dated 2012):

Target: DLL4 protein (R&D Systems) (Homo sapiens (Human), UniProt Q9NR61 27-524)
Experiment: cell-based or functional assay

Chain of DLL4 protein (R&D Systems) (Q9NR61 27-524 limits assumed): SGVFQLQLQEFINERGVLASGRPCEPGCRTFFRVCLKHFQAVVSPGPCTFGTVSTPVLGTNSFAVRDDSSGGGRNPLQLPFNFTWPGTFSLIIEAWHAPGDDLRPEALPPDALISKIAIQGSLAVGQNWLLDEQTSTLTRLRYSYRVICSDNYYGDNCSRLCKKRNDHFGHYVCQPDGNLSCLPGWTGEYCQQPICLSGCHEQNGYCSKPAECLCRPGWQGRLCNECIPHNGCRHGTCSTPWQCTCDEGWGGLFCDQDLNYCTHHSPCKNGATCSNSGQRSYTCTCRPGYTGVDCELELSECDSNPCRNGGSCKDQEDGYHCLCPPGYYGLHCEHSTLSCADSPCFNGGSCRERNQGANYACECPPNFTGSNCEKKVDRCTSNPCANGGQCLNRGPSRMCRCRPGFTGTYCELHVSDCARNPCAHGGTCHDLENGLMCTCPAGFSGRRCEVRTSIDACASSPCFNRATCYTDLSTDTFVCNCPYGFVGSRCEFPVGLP

Row | Binder | EC50, HUVEC proliferation on DLL4-coated wells (CellTiter Glo, day 3) | EC50, HES1 luciferase reporter in HELA cells on DLL4-coated wells
1 | 12.3 1C1 (antibody, V domains shown) VH: DVQLQESGPDLVKPSQSLSLTCTVTDHSITSGYSWHWIRQFPGNKLEWMAYIHYSGYTHYNPSLKSRISITRDTSKNQFFLHLNSVTTEDSATFYCAGSDYSANEGAMAYWGQGTSATVSS VL: DIVLTQSPASLAVSLGQRATISCRASESVDSFGNSFMHWYQQKAGQPPKLLIYRTSNLQSGIPARFSGSGSRTDFTLTINPVEADDVATYYCQQSNEDPWTFGGGTKLEIKR | 3.9 nM | 
2 | BA1 (antibody, V domains shown) VH: QVQLVQSGAEVKKPGASVKISCKASGYSFTAYYIHWVKQAPGQGLEWIGYISSYNGATNYNQKFKGRVTFTTDTSTSTAYMELRSLRSDDTAVYYCARDYDYDVGMDYWGQGTLVTVSS VL: DIVMTQSPDSLAVSLGERATISCRASESVDNYGISFMKWFQQKPGQPPKLLIYAASNQGSGVPDRFSGSGSGTDFTLTISSLQAEDVAVYYCQQSKEVPWTFGGGTKVEIKR | 60 nM | 
3 | 12.55 (antibody, human IgG2, V domains shown) VH: EVQLVETGGGLVQPGGSLRLSCAASGFTFSDYAMSWVRQTPGKGLEWVSTISGSGGDTFYADSVKGRFTISRDNSKNTLYLQVNSLRAEDTAVYYCAKDKNRGAYADAFDIWGQGTMVTVSS VL: QAVLTQPASLSASPGASASLTCTLRSDINVATYRIYWYKQKPGSPPQYLLTYKSDSDKQQGSGVPSRFSGSKDSSANAGILLISGLQSDDEADYHCMVWHKSAPIFGGGTKVTVLG |  | 21.9 nM
4 | BA2 (antibody, V domains shown) VH: EVQLVESGGGLVQPGGSLRLSCAASGFTFTDNWISWVRQAPGKGLEWVGYISPNSGFTYYADSVKGRFTISADTSKNTAYLQMNSLRAEDTAVYYCARDNFGGYFDYWGQGTLVTVSS VL: DIQMTQSPSSLSASVGDRVTITCRASQDVSTAVAWYQQKPGKAPKLLIYSASFLYSGVPSRFSGSGSGTDFTLTISSLQPEDFATYYCQQSYTGTVTFGQGTKVEIKR | 45 nM | 
